The values that follow come from US20120316071A1 (published 2012).

The target of assay [1] is T1, rHuman Notch-1/Fc Chimera, CF (R&D Systems Cat#3647-TK) (human, UniProt P46531 19-526).
T1 construct: Bought recombinant protein; Fc part of the bought chimera not given
Nature of the assay: Multispot ECL (MSD), antigen spotted on plate, Fab 31.3 nM; blank spot 250.

Assay [2] has as its target T2, rHuman Erythropoietin R/Fc Chimera, CF (R&D Systems Cat#963-ER) (human, UniProt P19235 25-250).
T2 construct: Bought recombinant protein; also called EPO R/Fc; Epo R; Fc part of the bought chimera not given
T2 sequence (looked up): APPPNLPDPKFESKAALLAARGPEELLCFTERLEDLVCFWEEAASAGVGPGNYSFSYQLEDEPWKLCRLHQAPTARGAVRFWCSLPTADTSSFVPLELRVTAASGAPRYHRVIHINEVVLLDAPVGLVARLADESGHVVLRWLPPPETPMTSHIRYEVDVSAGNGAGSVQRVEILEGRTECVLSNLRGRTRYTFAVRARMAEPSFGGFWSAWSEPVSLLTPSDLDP
The description is as above.

Assay [3] has as its target T3, rHuman IGF-1 sR, CF (R&D Systems Cat#391-GR) (human, UniProt P08069 31-932).
T3 construct: Bought recombinant soluble receptor; also called insulin-like growth factor-1 soluble receptor
The assay is described as above.

Assay [4] deals with T4, Recombinant Human DLL4 (R&D Systems Cat#1506-D4/CF) (human, UniProt Q9NR61 27-524).
T4 construct: Bought recombinant protein; also called rHuman DLL4; delta-like protein 4
Described as above.

Assay [5] concerns the target T5, rHuman Notch-1/Fc Chimera, CF (R&D Systems Cat#3647-TK) (human, UniProt P46531 19-526).
T5 construct: Bought Fc chimera; Fc part of the bought chimera not given
As to the kind of experiment: Multispot ECL (MSD) titration; antigen spotted on plate; Fab 14.5 nM; blank spot 117.

The target in assay [6] is T6, rHuman P-Cadherin/Fc Chimera, CF (R&D Systems Cat#861-PC) (human, UniProt P22223 108-654).
T6 construct: Bought Fc chimera; Fc part of the bought chimera not given
The assay is described as above.

The target of assay [7] is T7, rHuman ErbB2/Fc Chimera, CF (R&D Systems Cat#1129-ER) (human, UniProt P04626 23-652).
T7 construct: Bought Fc chimera; also called human epidermal growth factor 2 receptor; Fc part of the bought chimera not given
The description is as above.

In assay [8] the target is T8, Recombinant Human DLL4 (R&D Systems Cat#1506-D4/CF) (human, UniProt Q9NR61 27-524).
T8 construct: Bought recombinant protein; also called delta-like protein 4; rHuman DLL4
The description is as above.

For assay [9], the target named is T9, rHuman IGF-1 sR (IGF-1 sR), CF (R&D Systems Cat#391-GR) (human, UniProt P08069 31-932).
T9 construct: Bought soluble receptor; also called insulin-like growth factor-1 soluble receptor
The description is as above.

In assay [10] the target is T10, rHuman Erythropoietin R/Fc Chimera, CF (R&D Systems Cat#963-ER) (human, UniProt P19235 25-250).
T10 construct: Bought Fc chimera; also called EPO R/Fc; EPO R; Fc part of the bought chimera not given
T10 sequence (looked up): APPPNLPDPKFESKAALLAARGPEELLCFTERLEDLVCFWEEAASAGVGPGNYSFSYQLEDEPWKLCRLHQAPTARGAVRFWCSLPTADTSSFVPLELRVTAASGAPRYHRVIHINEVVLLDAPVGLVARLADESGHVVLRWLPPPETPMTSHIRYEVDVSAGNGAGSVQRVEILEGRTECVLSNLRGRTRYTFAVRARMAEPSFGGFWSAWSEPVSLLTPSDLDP
The description is as above.

The target of assay [11] is T11, rHuman CD44/Fc Chimera, CF (R&D Systems Cat#3660-CD) (human, UniProt P16070 21-220).
T11 construct: Bought Fc chimera; Fc part of the bought chimera not given
The assay is described as above.

The target of assay [12] is T12, rHuman CD44/Fc Chimera, CF (R&D Systems Cat#3660-CD) (human, UniProt P16070 21-220).
T12 construct: Bought from R&D Systems; not shown: Fc of the bought chimera
Nature of the assay: MSD multispot ECL, antigen spotted on plate, Fab 705 nM; blank spot 483.

Assay [13] deals with T13, rHuman IGF-1 sR, (IGF-1 sR), CF (R&D Systems Cat#391-GR) (human, UniProt P08069 31-932).
T13 construct: Bought from R&D Systems and called a soluble receptor; also called insulin-like growth factor-1 soluble receptor
The description is as above.

Assay [14] deals with T12, rHuman CD44/Fc Chimera, CF (R&D Systems …). As to the kind of experiment: MSD multispot ECL, antigen spotted on plate, Fab 1410 nM; blank spot 709.
In assay [15] the target is T14, Recombinant Human DLL4 (R&D Systems Cat#1506-D4/CF) (human, UniProt Q9NR61 27-524).
T14 construct: Bought from R&D Systems; also called rHuman DLL4; delta-like protein 4
Described as above.

The target of assay [16] is T15, rHuman HGF R/c-MET/Fc Chimera, CF (R&D Systems Cat#358-MT/CF) (human, UniProt P08581 25-932).
T15 construct: Bought from R&D Systems; also called HGF R/Fc; hepatocyte growth factor receptor (HGF R/c-Met); not shown: Fc of the bought chimera
The assay is described as above.

Assay [17] concerns the target T16, rHuman ErbB2/Fc Chimera, CF (R&D Systems Cat#1129-ER) (human, UniProt P04626 23-652).
T16 construct: Bought from R&D Systems; also called human epidermal growth factor 2 receptor (ErbB2); not shown: Fc of the bought chimera
The assay is described as above.

The target of assay [18] is T17, rHuman EGF R/Fc Chimera, CF (R&D Systems Cat#344-ER) (human, UniProt P00533 25-645).
T17 construct: Bought from R&D Systems; also called epidermal growth factor receptor (EGF R); not shown: Fc of the bought chimera
The assay is described as above.

T15 sequence (P08581 25-932, change not shown): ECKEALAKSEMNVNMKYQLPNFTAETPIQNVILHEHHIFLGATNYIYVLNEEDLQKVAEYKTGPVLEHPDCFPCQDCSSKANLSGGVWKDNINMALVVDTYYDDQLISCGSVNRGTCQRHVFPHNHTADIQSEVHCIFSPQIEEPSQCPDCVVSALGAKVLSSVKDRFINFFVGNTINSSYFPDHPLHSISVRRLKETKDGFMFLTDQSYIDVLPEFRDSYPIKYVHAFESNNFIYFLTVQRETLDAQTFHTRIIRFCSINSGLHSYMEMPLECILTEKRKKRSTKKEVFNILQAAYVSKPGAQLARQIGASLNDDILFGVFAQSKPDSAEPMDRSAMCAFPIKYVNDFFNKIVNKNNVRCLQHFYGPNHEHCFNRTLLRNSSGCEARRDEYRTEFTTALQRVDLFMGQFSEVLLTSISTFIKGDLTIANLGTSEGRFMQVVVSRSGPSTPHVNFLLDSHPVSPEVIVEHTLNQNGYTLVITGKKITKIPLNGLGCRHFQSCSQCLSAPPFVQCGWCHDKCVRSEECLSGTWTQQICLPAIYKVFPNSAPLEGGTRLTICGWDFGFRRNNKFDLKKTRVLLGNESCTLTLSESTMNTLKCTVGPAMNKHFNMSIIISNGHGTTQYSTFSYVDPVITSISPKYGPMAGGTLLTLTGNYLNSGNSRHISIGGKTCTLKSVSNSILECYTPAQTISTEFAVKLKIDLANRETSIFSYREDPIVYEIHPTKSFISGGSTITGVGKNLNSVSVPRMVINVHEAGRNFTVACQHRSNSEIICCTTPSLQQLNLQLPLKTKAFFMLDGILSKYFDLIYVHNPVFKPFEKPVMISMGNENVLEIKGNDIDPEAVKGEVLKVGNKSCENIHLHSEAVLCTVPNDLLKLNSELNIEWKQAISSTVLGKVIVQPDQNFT

B1: Fab VH1-46_IGHD6-13*01_IGHJ4*01 & B3_IGKJ1*01 (Fab, V domains shown)
VH: QVQLVQSGAEVKKPGASVKVSCKASGYTFTSYYMHWVRQAPGQGLEWMGIINPSGGSTSYAQKFQGRVTMTRDTSTSTVYMELSSLRSEDTAVYYCAREGYSSSWYDYFDYWGQGTLVTVSS
VL: not shown
notes: Germline Fab made in E. coli; VH was cloned into Plasmid A (CH1, His6 and Flag tags) and the kappa VL into Plasmid C (kappa CL)
As to B1, the ECL signal in assay [1] came to 563; in assay [2] it was 7880; in assay [3], 385; in assay [4], 528.

B2: Fab VH1-46_IGHD6-13*01_IGHJ4*01 & O1_IGKJ1*01 (Fab, V domains shown)
VH: QVQLVQSGAEVKKPGASVKVSCKASGYTFTSYYMHWVRQAPGQGLEWMGIINPSGGSTSYAQKFQGRVTMTRDTSTSTVYMELSSLRSEDTAVYYCAREGYSSSWYDYFDYWGQGTLVTVSS
VL: DIVMTQTPLSLPVTPGEPASISCRSSQSLLDSDDGNTYLDWYLQKPGQSPQLLIYTLSYRASGVPDRFSGSGSGTDFTLKISRVEAEDVGVYYCMQRIEFPSWTFGQGTKVEIKR
notes: Germline library Fab expressed in E. coli; VH was cloned into Plasmid A (CH1 constant region, His6 and Flag tags); The kappa VL was cloned into Plasmid C (kappa CL)
On to B2, for which the ECL signal amounted to 317 in assay [5]; 277 in [6]; 274 in [7]; 1150 in [8]; 234 in [9]; 660 in assay [10]. The same molecule showed an ECL signal in assay [11] of 212.

B3: Fab VH1-46_IGHD3-10*01_IGHJ4*01 & B3_IGKJ1*01 (Fab, V domains shown)
VH: QVQLVQSGAEVKKPGASVKVSCKASGYTFTSYYMHWVRQAPGQGLEWMGIINPSGGSTSYAQKFQGRVTMTRDTSTSTVYMELSSLRSEDTAVYYCAREYYYGSGSYYNDYFDYWGQGTLVTVSS
VL: not shown
notes: Tested as a Fab made in E. coli; VH was cloned into Plasmid A (CH1 constant region, His6 and Flag tags); The kappa VL was cloned into Plasmid C (kappa CL)
On to B3, for which the ECL signal is 693 in assay [12]; 630 in assay [13]; 885 in [14]; 1260 in [15]; 903 in assay [16]; 932 in [17]. Further, the ECL signal in assay [18] worked out at 1070.
